The source of these data is patent US6287865.

The target of the assay is Avr2 elicitor molecule of Cladosporium fulvum (Cladosporium fulvum).

B1: Cf-2.1 protein (polypeptide encoded by the tomato Cf-2.1 gene) (receptor)
chain: STEEATALLKWKATFKNQNNSFLASWIPSSNACKDWYGVVCFNGRVNTLNITNASVIGTLYAFPFSSLPSLENLDLSKNNIYGTIPPEIGNLTNLVYLDLNNNQISGTIPPQIGLLAKLQIIRIFHNQLNGFIPKEIGYLRSLTKLSLGINFLSGSIPASVGNLNNLSFLYLYNNQLSGSIPEEISYLRSLTELDLSDNALNGSIPASLGNMNNLSFLFLYGNQLSGSIPEEICYLRSLTYLDLSENALNGSIPASLGNLNNLSFLFLYGNQLSGSIPEEIGYLRSLNVLGLSENALNGSIPASLGNLKNLSRLNLVNNQLSGSIPASLGNLNNLSMLYLYNNQLSGSIPASLGNLNNLSMLYLYNNQLSGSIPASLGNLNNLSRLYLYNNQLSGSIPEEIGYLSSLTYLDLSNNSINGFIPASFGNMSNLAFLFLYENQLASSVPEEIGYLRSLNVLDLSENALNGSIPASFGNLNNLSRLNLVNNQLSGSIPEEIGYLRSLNVLDLSENALNGSIPASFGNLNNLSRLNLVNNQLSGSIPEEIGYLRSLNDLGLSENALNGSIPASLGNLNNLSMLYLYNNQLSGSIPEEIGYLSSLTYLSLGNNSLNGLIPASFANMRNLQALILNDNNLIGEIPSSVCNLTSLEVLYMPRNNLKGKVPQCLGNISNLQVLSMSSNSFSGELPSSISNLTSLQILDFGRNNLEGAIPQCFGNISSLEVFDMQNNKLSGTLPTNFSIGCSLISLNLHGNELEDEIPRSLDNCKKLQVLDLGDNQLNDTFPMWLGTLPELRVLRLTSNKLHGPIRSSRAEIMFPDLRIIDLSRNAFSQDLPTSLFEHLKGMRTVDKTMEEPSYESYYDDSVVVVTKGLELEIVRILSLYTVIDLSSNKFEGHIPSVLGDLIAIRILNVSHNALQGYIPSSLGSLSILESLDLSFNQLSGEIPQQLASLTFLEFLNLSHNYLQGCIPQGPQFRTFESNSYEGNDGLRGYPVSKGCGKDPVSEKNYTVSALEDQESNSEFFNDFWKAALMGYGSGLCIGISMIYILISTGNLRWLARIIEKLEHKIIMQRRKKQRGQRNYRRRNNHF
B1 had a resistance of progeny of resistant transformants to matched races of C. fulvum carrying or lacking Avr-2 (race 5,9 compared with race 2,5,9) of 75%.

B2: Cf-2.2 protein (polypeptide encoded by the tomato Cf-2.2 gene) (receptor)
chain: STEEATALLKWKATFKNQNNSFLASWIPSSNACKDWYGVVCFNGRVNTLNITNASVIGTLYAFPFSSLPSLENLDLSKNNIYGTIPPEIGNLTNLVYLDLNNNQISGTIPPQIGLLAKLQIIRIFHNQLNGFIPKEIGYLRSLTKLSLGINFLSGSIPASVGNLNNLSFLYLYNNQLSGSIPEEISYLRSLTELDLSDNALNGSIPASLGNMNNLSFLFLYGNQLSGSIPEEICYLRSLTYLDLSENALNGSIPASLGNLNNLSFLFLYGNQLSGSIPEEIGYLRSLNVLGLSENALNGSIPASLGNLKNLSRLNLVNNQLSGSIPASLGNLNNLSMLYLYNNQLSGSIPASLGNLNNLSMLYLYNNQLSGSIPASLGNLNNLSRLYLYNNQLSGSIPEEIGYLSSLTYLDLSNNSINGFIPASFGNMSNLAFLFLYENQLASSVPEEIGYLRSLNVLDLSENALNGSIPASFGNLNNLSRLNLVNNQLSGSIPEEIGYLRSLNVLDLSENALNGSIPASFGNLNNLSRLNLVNNQLSGSIPEEIGYLRSLNDLGLSENALNGSIPASLGNLNNLSMLYLYNNQLSGSIPEEIGYLSSLTYLSLGNNSLNGLIPASFGNMRNLQALILNDNNLIGEIPSSVCNLTSLEVLYMPRNNLKGKVPQCLGNISNLQVLSMSSNSFSGELPSSISNLTSLQILDFGRNNLEGAIPQCFGNISSLEVFDMQNNKLSGTLPTNFSIGCSLISLNLHGNELEDEIPRSLDNCKKLQVLDLGDNQLNDTFPMWLGTLPELRVLRLTSNKLHGPIRSSRAEIMFPDLRIIDLSRNAFSQDLPTSLFEHLKGMRTVDKTMEEPSYESYYDDSVVVVTKGLELEIVRILSLYTVIDLSSNKFEGHIPSVLGDLIAIRILNVSHNALQGYIPSSLGSLSILESLDLSFNQLSGEIPQQLASLTFLEFLNLSHNYLQGCIPQGPQFRTFESNSYEGNDGLRGYPVSKGCGKDPVSEKNYTVSALEDQESNSEFFNDFWKAALMGYGSGLCIGISIIYILISTGNLRWLARIIEELEHKIIMQRRKKQRGQRNYRRRNNRF
B2 had a resistance of progeny of resistant transformants to matched races of C. fulvum carrying or lacking Avr-2 (race 5,9 compared with race 2,5,9) of 75%.
